From US20230117883A1

Biological target: human transferrin receptor 1 (human) (UniProt P02786)
Test: Carterra LSA biosensor, 25C; IgG captured on anti-IgG lawn, hTfR1 injected; 1:1 Langmuir fit

UniProt P02786, sequence (P02786 89-760 limits assumed): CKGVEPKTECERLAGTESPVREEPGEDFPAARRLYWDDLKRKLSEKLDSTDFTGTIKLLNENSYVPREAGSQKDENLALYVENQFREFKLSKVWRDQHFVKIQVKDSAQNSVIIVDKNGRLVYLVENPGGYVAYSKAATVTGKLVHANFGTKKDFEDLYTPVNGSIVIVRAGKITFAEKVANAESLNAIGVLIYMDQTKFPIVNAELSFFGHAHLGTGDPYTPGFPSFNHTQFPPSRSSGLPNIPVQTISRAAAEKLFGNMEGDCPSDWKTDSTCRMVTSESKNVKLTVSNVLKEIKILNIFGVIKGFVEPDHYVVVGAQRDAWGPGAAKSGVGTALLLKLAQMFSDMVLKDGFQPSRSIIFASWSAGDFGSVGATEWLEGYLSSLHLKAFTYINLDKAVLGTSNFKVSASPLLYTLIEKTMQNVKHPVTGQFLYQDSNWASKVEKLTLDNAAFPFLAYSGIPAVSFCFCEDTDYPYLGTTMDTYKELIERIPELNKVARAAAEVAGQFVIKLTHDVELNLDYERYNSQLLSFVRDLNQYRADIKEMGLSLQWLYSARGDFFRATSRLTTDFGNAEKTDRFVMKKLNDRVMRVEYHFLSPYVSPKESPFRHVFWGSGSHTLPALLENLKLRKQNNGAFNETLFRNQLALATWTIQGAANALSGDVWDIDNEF

OKT9 mIgG (known anti-TfR1 antibody, control)
Kd: 0.536 nM
kon: 774000 M⁻¹ s⁻¹
